B1: Homeobox protein SIX3, residues 212 to 262; numbered along this chain, O95343 (parent)
chain: CFKERTRSLLREWYLQDPYPNPSKKRELAQATGLTPTQVGNWFKNRRQRDR

Here are results for 51 variants from the Human Domainome abundance scans (Beltran et al. 2025).

± gives the uncertainty stated by the source.

In the series the parent is B1. Nature of the series: abundance fitness (aPCA) (normalised: wild type 0, dead -1); higher = more abundant; growth selection in yeast, the domain comes from the species named. Particulars: Homo sapiens.
As to CFKERTRSLLREWYQQDPYPNPSKKRELAQATGLTPTQVGNWFKNRRQRDR [L15Q], the abundance fitness was found to be 0.08 ± 0.07.

Turning to CFKERTRSLLREWYEQDPYPNPSKKRELAQATGLTPTQVGNWFKNRRQRDR [L15E], the abundance fitness was -0.091 ± 0.16. CFKERTRSLLREWYRQDPYPNPSKKRELAQATGLTPTQVGNWFKNRRQRDR [L15R]: the abundance fitness stood at 0.145 ± 0.1. On to CFKERTRSLLREWYDQDPYPNPSKKRELAQATGLTPTQVGNWFKNRRQRDR [L15D], for which the abundance fitness turned out to be 0.114 ± 0.11. To CFKERTRSLLREWYCQDPYPNPSKKRELAQATGLTPTQVGNWFKNRRQRDR [L15C] belongs 0.756 ± 0.27; to CFKERTRSLLREWYAQDPYPNPSKKRELAQATGLTPTQVGNWFKNRRQRDR [L15A], 0.358 ± 0.093. To CFKERTRSLLREWYWQDPYPNPSKKRELAQATGLTPTQVGNWFKNRRQRDR [L15W] belongs -0.551 ± 0.35; to CFKERTRSLLREWYSQDPYPNPSKKRELAQATGLTPTQVGNWFKNRRQRDR [L15S], -0.568 ± 0.32. The result for CFKERTRSLLREWYMQDPYPNPSKKRELAQATGLTPTQVGNWFKNRRQRDR [L15M] reads -0.309 ± 0.2. Turning to CFKERTRSLLREWYVQDPYPNPSKKRELAQATGLTPTQVGNWFKNRRQRDR [L15V], the abundance fitness was -0.22 ± 0.24. For the variant CFKERTRSLLREWYLQDFYPNPSKKRELAQATGLTPTQVGNWFKNRRQRDR [P18F], the abundance fitness was -0.672 ± 0.17. The result for CFKERTRSLLREWYLQDAYPNPSKKRELAQATGLTPTQVGNWFKNRRQRDR [P18A] reads -0.226 ± 0.049; that for CFKERTRSLLREWYLQDHYPNPSKKRELAQATGLTPTQVGNWFKNRRQRDR [P18H], -0.028 ± 0.17; that for CFKERTRSLLREWYLQDKYPNPSKKRELAQATGLTPTQVGNWFKNRRQRDR [P18K], -0.136 ± 0.095. The result for CFKERTRSLLREWYLQDCYPNPSKKRELAQATGLTPTQVGNWFKNRRQRDR [P18C] reads -0.032 ± 0.082. To CFKERTRSLLREWYLQDVYPNPSKKRELAQATGLTPTQVGNWFKNRRQRDR [P18V] belongs -0.687 ± 0.062; to CFKERTRSLLREWYLQDQYPNPSKKRELAQATGLTPTQVGNWFKNRRQRDR [P18Q], -0.286 ± 0.18; to CFKERTRSLLREWYLQDLYPNPSKKRELAQATGLTPTQVGNWFKNRRQRDR [P18L], -0.903 ± 0.17.

For the variant CFKERTRSLLREWYLQDEYPNPSKKRELAQATGLTPTQVGNWFKNRRQRDR [P18E], the abundance fitness is -0.717 ± 0.13. The result for CFKERTRSLLREWYLQDMYPNPSKKRELAQATGLTPTQVGNWFKNRRQRDR [P18M] reads -0.501 ± 0.11; that for CFKERTRSLLREWYLQDSYPNPSKKRELAQATGLTPTQVGNWFKNRRQRDR [P18S], -0.474 ± 0.055. The result for CFKERTRSLLREWYLQDTYPNPSKKRELAQATGLTPTQVGNWFKNRRQRDR [P18T] reads -0.629 ± 0.14; that for CFKERTRSLLREWYLQDGYPNPSKKRELAQATGLTPTQVGNWFKNRRQRDR [P18G], -0.906 ± 0.085.

Turning to CFKERTRSLLREWYLQDIYPNPSKKRELAQATGLTPTQVGNWFKNRRQRDR [P18I], the abundance fitness was -0.487 ± 0.13. To CFKERTRSLLREWYLQDRYPNPSKKRELAQATGLTPTQVGNWFKNRRQRDR [P18R] belongs -0.182 ± 0.062; to CFKERTRSLLREWYLQIPYPNPSKKRELAQATGLTPTQVGNWFKNRRQRDR [D17I], -0.927 ± 0.38.

As to CFKERTRSLLREWYLQVPYPNPSKKRELAQATGLTPTQVGNWFKNRRQRDR [D17V], the abundance fitness is -0.878 ± 0.11.

For the variant CFKERTRSLLREWYLQHPYPNPSKKRELAQATGLTPTQVGNWFKNRRQRDR [D17H], the abundance fitness was -1.04 ± 0.23. For the variant CFKERTRSLLREWYLQQPYPNPSKKRELAQATGLTPTQVGNWFKNRRQRDR [D17Q], the abundance fitness was -0.814 ± 0.18. The result for CFKERTRSLLREWYLQFPYPNPSKKRELAQATGLTPTQVGNWFKNRRQRDR [D17F] reads -0.82 ± 0.39; that for CFKERTRSLLREWYLQMPYPNPSKKRELAQATGLTPTQVGNWFKNRRQRDR [D17M], -0.81 ± 0.14.

Regarding CFKERTRSLLREWYLQGPYPNPSKKRELAQATGLTPTQVGNWFKNRRQRDR [D17G], the abundance fitness is -0.834 ± 0.067.

As for CFKERTRSLLREWYLQCPYPNPSKKRELAQATGLTPTQVGNWFKNRRQRDR [D17C], the abundance fitness is -0.78 ± 0.27. CFKERTRSLLREWYLQNPYPNPSKKRELAQATGLTPTQVGNWFKNRRQRDR [D17N]: the abundance fitness was -0.599 ± 0.097.

In the case of CFKERTRSLLREWYLQYPYPNPSKKRELAQATGLTPTQVGNWFKNRRQRDR [D17Y], the abundance fitness was -1 ± 0.41.

As for CFKERTRSLLREWYLQSPYPNPSKKRELAQATGLTPTQVGNWFKNRRQRDR [D17S], the abundance fitness was -0.627 ± 0.07. The result for CFKERTRSLLREWYLQRPYPNPSKKRELAQATGLTPTQVGNWFKNRRQRDR [D17R] reads -0.907 ± 0.13. To CFKERTRSLLREWYLQTPYPNPSKKRELAQATGLTPTQVGNWFKNRRQRDR [D17T] belongs -0.844 ± 0.061; to CFKERTRSLLREWYLQPPYPNPSKKRELAQATGLTPTQVGNWFKNRRQRDR [D17P], -0.753 ± 0.19.

On to CFKERTRSLLREWYLQKPYPNPSKKRELAQATGLTPTQVGNWFKNRRQRDR [D17K], for which the abundance fitness is -0.665 ± 0.12. The result for CFKERTRSLLREWYLQEPYPNPSKKRELAQATGLTPTQVGNWFKNRRQRDR [D17E] reads -0.204 ± 0.078. The result for CFKERTRSLLREWYLQAPYPNPSKKRELAQATGLTPTQVGNWFKNRRQRDR [D17A] reads -0.89 ± 0.14. Consider CFKERTRSLLREWYLQDPYMNPSKKRELAQATGLTPTQVGNWFKNRRQRDR [P20M], for which the abundance fitness is -0.663 ± 0.17. The result for CFKERTRSLLREWYLQDPYFNPSKKRELAQATGLTPTQVGNWFKNRRQRDR [P20F] reads -0.799 ± 0.11.

Take CFKERTRSLLREWYLQDPYENPSKKRELAQATGLTPTQVGNWFKNRRQRDR [P20E]: the abundance fitness is -0.756 ± 0.12. To CFKERTRSLLREWYLQDPYLNPSKKRELAQATGLTPTQVGNWFKNRRQRDR [P20L] belongs -0.339 ± 0.1. The result for CFKERTRSLLREWYLQDPYGNPSKKRELAQATGLTPTQVGNWFKNRRQRDR [P20G] reads -0.764 ± 0.055; that for CFKERTRSLLREWYLQDPYKNPSKKRELAQATGLTPTQVGNWFKNRRQRDR [P20K], -0.977 ± 0.17. The result for CFKERTRSLLREWYLQDPYDNPSKKRELAQATGLTPTQVGNWFKNRRQRDR [P20D] reads -0.845 ± 0.13; that for CFKERTRSLLREWYLQDPYCNPSKKRELAQATGLTPTQVGNWFKNRRQRDR [P20C], -0.486 ± 0.29. Take CFKERTRSLLREWYLQDPYANPSKKRELAQATGLTPTQVGNWFKNRRQRDR [P20A]: the abundance fitness was -0.425 ± 0.14.
